According to paper PMC9367177 (iScience, 2022):
Numbering of substitutions follows the chain as printed.

B1: eCC6.30.9 (antibody, V domains shown)
VH: QVQLVQSGAEVKKPGSSVKVSCKASGGIFSIYAITWVRQAPGQGLEWMGAIIPIIGTANYAQKFQGRVTITADKSTSTAYMELSSLRSEDTAVYYCARDFRYCSSTRCYFNFDPWGQGTLVTVSS
VL: DIQMTQSPSSLSASVGDRVTITCRASQSISNYLNWYQQEAGKAPKLLIYTASSLQSGVPSRFSGSGSGTDFTLTISSLQPEDFATYYCQQSYSTPRTFGQGTKVDIK
notes: copies: 2 + 2
B2: eCC6.33.5 (antibody, V domains shown)
VH: QVQLVQSGAEVKKPGSSVKVSCKAVGGTFSSSAIYWVRQAPGQGLEWMGGIIPILDIANYAQKFQGRVTITADKSTSTAFMELSSLRSEDTAVYYCALRNQWDLVVYWGQGTLVTVSS
VL: EIVLTQSPGTLSLSPGERATLSCHASQSVSSSYLAWYQQKPGQAPRLLIYGAESRATGIPDRFSGSGSGTDFTLTISRLEPEDFAVYYCQHYGSSTWTFGQGTKLEIK
notes: copies: 2 + 2
B3: eCC6.33.6 (antibody, V domains shown)
VH: B2 VH with V25P, Y35S, A58T, N59T, V105L, V106I
VL: B2 VL with H24R, S32H, E53S, A56Y, T96H
notes: copies: 2 + 2
B4: eCC6.33.9 (antibody, V domains shown)
VH: B2 VH with A24S, V25S, I34Y, Y35S, G50T, A58T, L98Q, V105I
VL: B2 VL with H24R, S28W, L34I, T96S
notes: copies: 2 + 2

These binders were tested against T1, SARS-CoV-2 RBD (Wuhan-1) (SARS-CoV-2, Wuhan-1, UniProt P0DTC2) (assay: SPR). Settings: both partners purified.
T1 construct: source: Expi293, transfected, purified (Ni-NTA, SEC)

Binder | Kd | koff | kon
B1 | 0.0788 nM | 0.000202 s⁻¹ | 2.57e+06 M⁻¹ s⁻¹
B2 | 17.3 nM | 0.00411 s⁻¹ | 237000 M⁻¹ s⁻¹
B3 | 13.3 nM | 0.00167 s⁻¹ | 126000 M⁻¹ s⁻¹
B4 | 14.3 nM | 0.00218 s⁻¹ | 153000 M⁻¹ s⁻¹
